Measurements: the nanobody polyreactivity screen of Harvey et al. (2022)

experiment: yeast display, Sf9 membrane polyspecificity reagent, FACS + sequencing; frameworks hold sequencing errors
Method in brief: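 In a synthetic yeast display library (Saccharomyces cerevisiae BJ5465), nanobody expression was induced with galactose for 36–48 hours. FACS gates were set low and high (top ~1%) using anti-HA fluorescence for expression and streptavidin fluorescence for binding of the Sf9 membrane reagent. Each polyreactivity label is drawn from the gate of origin.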

Sequence	polyreactivity (PSR sort gate)
QVQLVESGGGLVQAGGSLRLSCAASGSTFQSYAMGWYRQAPGKERELVAAITTTGTRTYYADSVKGRFTISRDNAKNTVYFQMNSLKPEDTAVYSCNAQRLQAHRTSRRYDYWGQGTQVTVSS	high polyreactivity
QVQLVESGGGLVQAGGSLRLSCAASGSTFQTYAMGWFRQAPGQERELVAAITSGGSTNYADSVKGRFTISRDNAKNTVSLQMNSLKPEDTAVYYCNKKSRRQYDYWGQGTQVTVSS	low polyreactivity
QVQLVESGGGLVQAGGSLRLSCAASGSTFQVNVMGWYRPAPGKEREFVAGISYSGGSTYYADSVKGRFTISRDNAKNTVYLQMNSLKPDDTAVYYCAAEEDYNIAGSWTYTYDYWGQGTQVTVSS	low polyreactivity
QVQLVESGGGLVQAGGSLRLSCAASGSTFQVYAMGWYRQAPGKERELVAAISYRDGNTYYADSVKGRFTISRDNAKNTFYLQMNSLKPEDTAVYYCNAGLYLPSGYRRSNGYESDYWGQGTQVTVSS	high polyreactivity
QVQLVESGGGLVQAGGSLRLSCAASGSTFQWNALGWYRQAPGKERELVASITDSGGRTNYADSVKGRFTISRDNAKNTVYLQMNSLKPEDTAVYYCNAAGYRRSTWWYDYWGQGSQVTVSS	high polyreactivity
QVQLVESGGGLVQAGGSLRLSCAASGSTFQWNAMGWYRQAPGKERELVASITDSGGRTYYADSVKGRFTISRDNAKNTVYLQMNSLKPEDTAVYYCAAVSLWWSDYYFVEYDYWGQGTQVTVSS	high polyreactivity
QVQLVESGGGLVQAGGSLRLSCAASGSTFQWYAMGWYRQAPGKERELVAAITKSGGSTYYADSVKGRFTISRDNAKNTVYLQMNSLKPEDTAVYYCAAGFWYYATEYDYWGQGTQVTVSS	low polyreactivity
QVQLVESGGGLVQAGGSLRLSCAASGSTFQYNAKGWYRQAPGKERELVAAISSGGSTYYADSVKGRFTISRDNAKNTVYLQMNSLKPEDTAVYYCNALSRRQNWAGEVYYWGQGTQVTVSS	high polyreactivity
QVQLVESGGGLVQAGGSLRLSCAASGSTFQYYAMGWYREAPGKERELVAAITHSGTRTYYADSVKGRYTISRDNAKNTVYLQMNTLKPEDTAGYYCAARGYGKYDYWGQGTQVTVSS	high polyreactivity
QVQLVESGGGLVQAGGSLRLSCAASGSTFQYYAMGWYSQAPGKERELVAAISYGGSRTYYADSVKGRFTISRDNAKNTVYLQMNSLKPEDTAVYYCAKEKYRALAPYYYWGQGTQVTVSS	high polyreactivity
QVQLVESGGGLVQAGGSLRLSCAASGSTFRANAMGWYRQAPGKERELVAAIRWRGVGTYYADSVKGRFTISRDNAKNTVYLQMNSLKPEDTAVYYCAARRLGRSGNGSWGQGTQVTVSS	high polyreactivity
QVQLVESGGGLVQAGGSLRLSCAASGSTFRDYAMGWYRQAPGKERELVAAITSGGSTNYADSVKGRFTISRDNAKNTVYLQMNSLKPEDTAVYYCNARYAGWYTPWGRQSVYSDDYWGQGTQVTVSS	low polyreactivity
QVQLVESGGGLVQAGGSLRLSCAASGSTFRDYDMGWYRQAPGKERELVAAISRSGGRTYYADSVKGRFTISRDNAKNTVYLQMNSLKPEDTAVYYCAARRYTRRANPAYPYEYWGQGTQVTVSS	high polyreactivity
QVQLVESGGGLVQAGGSLRLSCAASGSTFRFNAMGWYRQAPGKERELVAVIRWRGGTTYYADSVKGRFTISRDNAKNTVYLQMKSLKPEDTAVYYCNADYWGQGTQVTVSS	high polyreactivity
QVQLVESGGGLVQAGGSLRLSCAASGSTFRFYAMGWYRQAPGKERELVATISSSGGTTYYADSVKGRFTISRDNAKNTVYLQMNSLKPEDTAVYYCAKDAFGWGRVYYYRSGYWGQGTQVTVSS	high polyreactivity
QVQLVESGGGLVQAGGSLRLSCAASGSTFRFYAMGWYRQAPGKERELVAVIRSTGSTYYADSVKGRFTISRDNAKNTVYLQMNSLKPEDTAVYYCAAQNAWWSNGRSYDYWGQGTQVTVSS	low polyreactivity
QVQLVESGGGLVQAGGSLRLSCAASGSTFRGNAMGWYRQAPGKERELVAAISSSGGSTNYADSVKGRFTISRDNAKNTVYLQMNSLKPEDTAVYYCAAERYFVWPFLLKYDYWGQGTQVTVSS	low polyreactivity
